One block for each binder: values may come before it.
Key:
[1] = biological target: T1, human biliverdin reductase B (BLVRB), recombinant, full length (human, UniProt P30043 1-206); assay: NMR titration
T1 sequence: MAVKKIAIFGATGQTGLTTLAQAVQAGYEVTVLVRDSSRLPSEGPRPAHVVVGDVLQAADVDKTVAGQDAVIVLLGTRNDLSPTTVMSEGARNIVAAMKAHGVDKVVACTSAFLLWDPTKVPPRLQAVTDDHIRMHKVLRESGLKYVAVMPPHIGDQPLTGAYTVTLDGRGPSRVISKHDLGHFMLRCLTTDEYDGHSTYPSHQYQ

[2] = biological target: T2, Band 3 (SLC4A1), endogenous in human red blood cells (human (endogenous in RBCs), UniProt P02730 1-911); assay: cross-linking
T2 sequence: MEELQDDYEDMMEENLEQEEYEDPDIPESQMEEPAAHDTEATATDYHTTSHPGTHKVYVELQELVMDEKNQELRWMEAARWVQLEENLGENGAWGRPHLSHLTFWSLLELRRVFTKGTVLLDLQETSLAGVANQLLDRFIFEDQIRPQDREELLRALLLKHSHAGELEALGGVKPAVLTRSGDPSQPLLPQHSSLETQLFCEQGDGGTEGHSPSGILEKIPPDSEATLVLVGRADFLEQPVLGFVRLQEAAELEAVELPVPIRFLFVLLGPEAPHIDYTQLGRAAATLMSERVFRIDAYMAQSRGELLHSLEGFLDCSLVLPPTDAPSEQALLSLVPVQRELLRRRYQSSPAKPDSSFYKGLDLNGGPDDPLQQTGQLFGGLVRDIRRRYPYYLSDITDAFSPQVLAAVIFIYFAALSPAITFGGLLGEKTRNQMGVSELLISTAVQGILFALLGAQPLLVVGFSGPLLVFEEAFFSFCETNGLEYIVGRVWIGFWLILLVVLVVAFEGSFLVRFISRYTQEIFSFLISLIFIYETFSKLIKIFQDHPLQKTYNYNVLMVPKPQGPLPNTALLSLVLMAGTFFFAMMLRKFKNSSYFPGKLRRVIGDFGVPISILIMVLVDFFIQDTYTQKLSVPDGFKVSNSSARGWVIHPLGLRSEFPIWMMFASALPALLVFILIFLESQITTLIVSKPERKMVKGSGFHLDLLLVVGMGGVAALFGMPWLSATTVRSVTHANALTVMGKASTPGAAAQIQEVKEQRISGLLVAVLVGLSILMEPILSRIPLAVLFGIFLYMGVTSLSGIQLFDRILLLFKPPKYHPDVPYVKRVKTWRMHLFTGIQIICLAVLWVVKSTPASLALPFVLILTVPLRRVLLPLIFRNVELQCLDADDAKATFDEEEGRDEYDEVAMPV

binding result [1]: binds
B1: Band 3 (SLC4A1) N-terminal residues 1-56, recombinant (domain or fragment)
chain: MEELQDDYEDMMEENLEQEEYEDPDIPESQMEEPAAHDTEATATDYHTTSHPGTHK

fold change of cross-links, hypoxia against normoxia [2]: 3 fold
B2: hemoglobin (deoxyhemoglobin tetramer), endogenous in human red blood cells (complex)
chain 1: not shown
chain 2: not shown

binding result [1]: binds
Binder: MEELQDDYEDMMEENLEQEEYEDPDIPESQ (domain or fragment) [Band 3 (SLC4A1) N-terminal residues 1-30, recombinant]

Source: article doi:10.1101/2025.11.29.691178 (bioRxiv, 2025)
